Biological target: endogenous p53 (MRC5.SV40 cells; U-2 OS cells) (UniProt P04637)
Experiment: cell-based or functional assay

endogenous p53 (MRC5.SV40 cells; U-2 OS cells), sequence (P04637 whole entry): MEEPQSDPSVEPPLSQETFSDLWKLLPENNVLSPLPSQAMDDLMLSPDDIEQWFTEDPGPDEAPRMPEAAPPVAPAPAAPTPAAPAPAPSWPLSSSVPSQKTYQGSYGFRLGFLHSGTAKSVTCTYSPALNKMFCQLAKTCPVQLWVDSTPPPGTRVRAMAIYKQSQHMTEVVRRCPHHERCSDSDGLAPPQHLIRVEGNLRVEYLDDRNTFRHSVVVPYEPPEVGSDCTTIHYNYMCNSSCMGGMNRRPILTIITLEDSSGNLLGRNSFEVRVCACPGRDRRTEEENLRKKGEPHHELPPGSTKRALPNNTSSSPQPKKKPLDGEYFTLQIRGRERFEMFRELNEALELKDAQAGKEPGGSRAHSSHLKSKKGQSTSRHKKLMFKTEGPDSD
full-length CBP, P45481 2-2441, sequence (P45481 2-2441 limits assumed): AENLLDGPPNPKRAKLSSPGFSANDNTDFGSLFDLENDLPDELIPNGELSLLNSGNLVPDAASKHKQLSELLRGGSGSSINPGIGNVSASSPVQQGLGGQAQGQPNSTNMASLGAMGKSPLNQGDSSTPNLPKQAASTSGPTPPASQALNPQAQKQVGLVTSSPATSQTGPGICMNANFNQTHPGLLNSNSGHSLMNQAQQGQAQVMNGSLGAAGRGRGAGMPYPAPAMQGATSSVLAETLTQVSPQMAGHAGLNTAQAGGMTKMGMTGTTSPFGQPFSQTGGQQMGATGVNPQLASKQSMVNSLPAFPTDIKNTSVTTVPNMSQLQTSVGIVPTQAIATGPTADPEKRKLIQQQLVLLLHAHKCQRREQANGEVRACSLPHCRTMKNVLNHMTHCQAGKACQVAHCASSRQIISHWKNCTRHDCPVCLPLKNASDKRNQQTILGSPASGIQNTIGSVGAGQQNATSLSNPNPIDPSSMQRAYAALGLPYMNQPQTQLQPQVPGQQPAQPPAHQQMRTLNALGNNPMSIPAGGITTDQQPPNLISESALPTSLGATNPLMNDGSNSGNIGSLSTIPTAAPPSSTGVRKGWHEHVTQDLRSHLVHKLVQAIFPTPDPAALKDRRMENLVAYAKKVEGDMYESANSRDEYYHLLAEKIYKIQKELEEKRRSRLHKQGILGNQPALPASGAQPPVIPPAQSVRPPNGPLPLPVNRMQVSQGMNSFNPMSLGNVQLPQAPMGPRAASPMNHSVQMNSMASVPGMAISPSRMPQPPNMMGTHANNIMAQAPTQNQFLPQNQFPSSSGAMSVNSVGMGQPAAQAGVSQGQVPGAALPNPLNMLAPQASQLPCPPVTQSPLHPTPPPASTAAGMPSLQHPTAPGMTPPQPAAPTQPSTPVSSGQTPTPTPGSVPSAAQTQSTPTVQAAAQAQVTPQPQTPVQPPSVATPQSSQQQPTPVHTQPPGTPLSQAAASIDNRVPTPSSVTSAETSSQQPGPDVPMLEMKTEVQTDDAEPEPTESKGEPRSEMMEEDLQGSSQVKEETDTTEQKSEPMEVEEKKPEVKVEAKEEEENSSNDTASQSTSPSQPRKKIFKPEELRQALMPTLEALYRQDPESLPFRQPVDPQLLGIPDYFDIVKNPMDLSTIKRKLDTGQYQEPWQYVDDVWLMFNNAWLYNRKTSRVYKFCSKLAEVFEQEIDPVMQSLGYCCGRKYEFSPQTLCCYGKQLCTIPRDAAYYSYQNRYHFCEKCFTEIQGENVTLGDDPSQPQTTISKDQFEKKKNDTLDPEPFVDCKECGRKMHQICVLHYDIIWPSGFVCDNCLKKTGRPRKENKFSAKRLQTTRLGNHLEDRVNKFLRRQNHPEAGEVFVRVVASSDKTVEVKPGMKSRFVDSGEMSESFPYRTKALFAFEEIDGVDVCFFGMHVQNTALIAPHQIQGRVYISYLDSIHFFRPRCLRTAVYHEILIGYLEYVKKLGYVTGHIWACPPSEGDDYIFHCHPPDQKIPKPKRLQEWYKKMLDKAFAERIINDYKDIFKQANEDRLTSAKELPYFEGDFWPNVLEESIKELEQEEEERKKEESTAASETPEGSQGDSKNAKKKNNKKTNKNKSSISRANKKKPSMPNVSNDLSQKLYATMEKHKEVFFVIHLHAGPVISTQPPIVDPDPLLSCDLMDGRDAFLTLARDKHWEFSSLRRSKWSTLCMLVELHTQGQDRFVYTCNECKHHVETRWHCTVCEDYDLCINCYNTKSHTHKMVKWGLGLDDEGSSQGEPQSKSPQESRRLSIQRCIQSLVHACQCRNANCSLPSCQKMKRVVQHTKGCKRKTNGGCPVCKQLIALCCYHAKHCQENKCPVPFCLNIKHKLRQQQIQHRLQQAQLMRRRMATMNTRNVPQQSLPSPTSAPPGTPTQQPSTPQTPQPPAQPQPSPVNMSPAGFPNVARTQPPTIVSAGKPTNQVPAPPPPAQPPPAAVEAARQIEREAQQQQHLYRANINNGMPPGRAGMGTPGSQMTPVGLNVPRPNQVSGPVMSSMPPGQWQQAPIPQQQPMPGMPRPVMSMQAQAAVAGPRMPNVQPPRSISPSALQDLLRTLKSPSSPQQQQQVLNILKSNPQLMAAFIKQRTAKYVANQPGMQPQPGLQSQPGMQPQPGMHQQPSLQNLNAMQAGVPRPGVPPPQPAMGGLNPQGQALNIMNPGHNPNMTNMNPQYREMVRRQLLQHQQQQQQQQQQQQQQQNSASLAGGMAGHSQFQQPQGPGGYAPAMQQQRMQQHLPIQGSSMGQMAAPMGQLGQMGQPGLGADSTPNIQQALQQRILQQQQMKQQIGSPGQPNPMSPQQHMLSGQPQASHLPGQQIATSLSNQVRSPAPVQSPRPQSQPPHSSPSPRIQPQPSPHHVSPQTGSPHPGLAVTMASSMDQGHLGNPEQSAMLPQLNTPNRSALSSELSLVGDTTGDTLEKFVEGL

p53-dependent transcription (PG13CAT reporter, U2-OS cells): 7 fold
Substance: full-length CBP, P45481 2-2441
